Data as given in patent US20210079074A1 (Alector, published 2021).
Numbering of substitutions follows the chain as printed. Names and notes keep the numbering of the source.

B1: anti-MS4A4A antibody 4A-313 K322A huIgG1 (antibody)
heavy: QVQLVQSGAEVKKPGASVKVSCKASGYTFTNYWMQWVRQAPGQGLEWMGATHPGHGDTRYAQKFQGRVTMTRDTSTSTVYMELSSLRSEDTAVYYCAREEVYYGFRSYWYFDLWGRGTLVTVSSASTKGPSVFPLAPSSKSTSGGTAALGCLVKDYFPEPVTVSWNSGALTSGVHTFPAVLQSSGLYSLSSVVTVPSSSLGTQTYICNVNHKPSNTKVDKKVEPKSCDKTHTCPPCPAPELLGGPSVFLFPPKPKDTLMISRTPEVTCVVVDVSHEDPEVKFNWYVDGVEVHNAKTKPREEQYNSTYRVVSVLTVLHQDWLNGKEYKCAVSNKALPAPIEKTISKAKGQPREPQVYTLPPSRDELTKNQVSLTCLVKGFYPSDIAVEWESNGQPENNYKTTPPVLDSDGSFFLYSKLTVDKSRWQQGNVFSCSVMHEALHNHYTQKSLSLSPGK
light: EIVLTQSPATLSLSPGERATLSCRASESVDNYGVSRMNWYQQKPGQAPRLLIYGASNQGSGIPARFSGSGSGTDFTLTISSLEPEDFAVYYCQQSKEVPPTFGGGTKVEIKRTVAAPSVFIFPPSDEQLKSGTASVVCLLNNFYPREAKVQWKVDNALQSGNSQESVTEQDSKDSTYSLSSTLTLSKADYEKHKVYACEVTHQGLSSPVTKSFNRGEC
B2: anti-MS4A4A antibody 4A-333 (antibody, human IgG1, V domains shown)
VH: QVQLVQSGSELKKPGASVKVSCKASGYIFTSYGLSWVRQAPGQGLEWMGWINTYSGVPTYAQGFTGRFVFSLDTSVSTTYLQISSLKAEDTAVYYCARSLVDYWGQGTLVTVSS
VL: DVVMTQSPLSLPVTLGQPASISCKSSQSLLYSDGKTYLSWFQQRPGQSPRRLIYLVSKLDSGVPDRFSGSGSGTDFTLKISRVEAEDVGVYYCWQGIDFHQTFGGGTKVEIK
notes: humanized 4A-21; human IgG1/kappa
B3: anti-MS4A4A antibody 4A-334 (antibody, human IgG1, V domains shown)
VH: B2 VH with T79A
VL: B2 VL with V2I, S7T, L11S, F41L, S48P, R51L, S72A
notes: as for B2
B4: anti-MS4A4A antibody 4A-335 (antibody, human IgG1, V domains shown)
VH: B2 VH with T79A
VL: B2 VL with S7T, L11S, F41L, S48P, R51L, S72A
notes: as for B2
B5: anti-MS4A4A antibody 4A-336 (antibody, human IgG1, V domains shown)
VH: B2 VH with T79A
VL: B2 VL with S7T, L11S, F41L, S48P, S72A
notes: as for B2
B6: anti-MS4A4A antibody 4A-337 (antibody, human IgG1, V domains shown)
VH: B2 VH
VL: B2 VL with V2I, S7T, L11S, F41L, S48P, R51L, S72A
notes: as for B2
B7: anti-MS4A4A antibody 4A-338 (antibody, human IgG1, V domains shown)
VH: B2 VH
VL: B2 VL with S7T, L11S, F41L, S48P, R51L, S72A
notes: as for B2
B8: anti-MS4A4A antibody 4A-339 (antibody, human IgG1, V domains shown)
VH: B2 VH
VL: B2 VL with S7T, L11S, F41L, S48P, S72A
notes: as for B2
B9: anti-MS4A4A antibody 4A-346 (antibody, human IgG1, V domains shown)
VH: QVQLVQSGAEVKKPGASVKVSCKASGYIFTSYGLSWVRQAPGQGLEWMGWINTYSGVPTYAQKFQGRVTMTRDTSTSTVYMELSSLRSEDTAVYYCARSLVDYWGQGTLVTVSS
VL: B2 VL with V2I, S7T, P12S, L15P, F41Y, Q42L, R44K, S48P, R50Q, R51L
notes: as for B2
B10: anti-MS4A4A antibody 4A-340 (antibody, human IgG1, V domains shown)
VH: B9 VH with G44R, A61S, M70I, R72L, T76A, V79T
VL: B2 VL with S7T, P12S, L15P, F41Y, Q42L, R44K, S48P, R50Q, R51L
notes: as for B2
B11: anti-MS4A4A antibody 4A-342 (antibody, human IgG1, V domains shown)
VH: B9 VH with V2I
VL: B2 VL with S7T, P12S, L15P, F41Y, Q42L, R44K, S48P, R50Q
notes: as for B2
B12: anti-MS4A4A antibody 4A-343 (antibody, human IgG1, V domains shown)
VH: B9 VH with V2I, R72L, V79T
VL: B2 VL with S7T, P12S, L15P, F41Y, Q42L, R44K, S48P, R50Q
notes: as for B2
B13: anti-MS4A4A antibody 4A-344 (antibody, human IgG1, V domains shown)
VH: B9 VH
VL: B2 VL with S7T, P12S, L15P, F41Y, Q42L, R44K, S48P, R50Q
notes: as for B2
B14: anti-MS4A4A antibody 4A-345 (antibody, human IgG1, V domains shown)
VH: B9 VH with G44R, A61S, M70I, T76A, V79A
VL: B2 VL with V2I, S7T, P12S, L15P, F41Y, Q42L, R44K, S48P, R50Q, R51L
notes: as for B2
B15: anti-MS4A4A antibody 4A-347 (antibody, human IgG1, V domains shown)
VH: B9 VH with G44R, A61S, M70I, R72L, T76A, V79T
VL: B2 VL with V2I, S7T, P12S, L15P, F41Y, Q42L, R44K, S48P, R50Q, R51L
notes: as for B2
B16: anti-MS4A4A antibody 4A-348 (antibody, human IgG1, V domains shown)
VH: B9 VH with V2I
VL: B2 VL with V2I, S7T, P12S, L15P, F41Y, Q42L, R44K, S48P, R50Q, R51L
notes: as for B2
B17: anti-MS4A4A antibody 4A-349 (antibody, human IgG1, V domains shown)
VH: B9 VH with V2I, R72L, V79T
VL: B2 VL with V2I, S7T, P12S, L15P, F41Y, Q42L, R44K, S48P, R50Q, R51L
notes: as for B2
B18: anti-MS4A4A antibody 4A-341 (antibody, human IgG1, V domains shown)
VH: B9 VH with G44R, A61S, M70I, T76A, V79A
VL: B2 VL with S7T, P12S, L15P, F41Y, Q42L, R44K, S48P, R50Q, R51L
notes: as for B2
B19: anti-MS4A4A antibody 4A-305 (antibody, human IgG1, V domains shown)
VH: EVQLVQSGAEVKKPGATVKISCKVSGYTFTNYWMQWVQQAPGKGLEWMGATHPGHGDTRYAEKFQGRVTITADTSTDTAYMELSSLRSEDTAVYYCAREEVYYGFRSYWYFDVWGRGTLVTVSS
VL: DIVMTQSPDSLAVSLGERATINCRASESVDNYGVSFMNWYQQKPGQPPKLLIYGASNQGSGVPDRFSGSGSGTDFTLTISSLQAEDVAVYYCQQSKEVPPTFGGGTKVEIK
notes: human IgG1/kappa
B20: anti-MS4A4A antibody 4A-307 (antibody, human IgG1, V domains shown)
VH: QVQLVQSGAEVKKPGASVKVSCKASGYTFTNYWMQWVRQAPGQGLEWMGATHPGHGDTRYAQKFQGRVTMTADKSTSTVYMELSSLRSEDTAVYYCAREEVYYGFRSYWYFDVWGRGTLVTVSS
VL: B19 VL
notes: human IgG1/kappa
B21: anti-MS4A4A antibody 4A-311 (antibody, human IgG1, V domains shown)
VH: B19 VH with T74K, D77S
VL: B19 VL
notes: human IgG1/kappa
B22: anti-MS4A4A antibody 4A-303 (antibody, human IgG1, V domains shown)
VH: EVQLVQSGAEVKKPGESLKISCKGSGYTFTNYWMQWVRQMPGKGLEWMGATHPGHGDTRYSPSFQGQVTISADKSISTAYLQWSSLKASDTAMYYCAREEVYYGFRSYWYFDVWGRGTLVTVSS
VL: B19 VL
notes: human IgG1/kappa
B23: anti-MS4A4A antibody 4A-310 (antibody, human IgG1, V domains shown)
VH: B22 VH with I76S
VL: B19 VL
notes: human IgG1/kappa
B24: anti-MS4A4A antibody 4A-306 (antibody, human IgG1, V domains shown)
VH: B20 VH with A72R, K74T
VL: DIQMTQSPSSLSASVGDRVTITCRASESVDNYGVSFMNWYQQKPGKAPKLLIYGASNQGSGVPSRFSGSGSGTDFTLTISSLQPEDFATYYCQQSKEVPPTFGGGTKVEIK
notes: human IgG1/kappa

Key:
[1] = target: T1, FcγRIIa receptor (H131 variant) (UniProt P12318 34-317, limits assumed); assay: cell-based or functional assay
T1 sequence (looked up): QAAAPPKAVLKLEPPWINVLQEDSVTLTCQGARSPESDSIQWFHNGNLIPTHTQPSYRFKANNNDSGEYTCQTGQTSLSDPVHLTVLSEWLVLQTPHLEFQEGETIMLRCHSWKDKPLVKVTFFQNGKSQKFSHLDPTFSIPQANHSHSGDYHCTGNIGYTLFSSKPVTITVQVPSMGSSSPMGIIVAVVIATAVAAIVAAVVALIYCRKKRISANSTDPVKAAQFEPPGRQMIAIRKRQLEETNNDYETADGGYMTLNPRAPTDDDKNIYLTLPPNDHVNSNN

[2] = target: FcγRIIIa receptor (V158 variant) (UniProt P08637 17-254); assay: cell-based or functional assay
Chain of FcγRIIIa receptor (V158 variant) (P08637 other isoform, or with tags, fused parts or gaps mutant limits assumed): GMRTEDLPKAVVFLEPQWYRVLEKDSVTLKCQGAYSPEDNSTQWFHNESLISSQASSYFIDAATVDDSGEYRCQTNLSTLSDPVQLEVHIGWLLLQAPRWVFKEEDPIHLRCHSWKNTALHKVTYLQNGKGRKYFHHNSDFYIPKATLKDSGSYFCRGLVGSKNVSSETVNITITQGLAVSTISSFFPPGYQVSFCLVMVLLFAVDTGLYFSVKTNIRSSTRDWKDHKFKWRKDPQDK

human MS4A4A = human MS4A4A (human, UniProt Q96JQ5 1-239); assay: FACS, U937-huMS4A4A, 5 ug/ml
Description: Anti-MS4A4A antibodies tested were either mouse IgGs purified from hybridoma supernatant or human IgG1 Fc chimeras produced recombinantly in Expi293 cells. Affinity binding to cells was determined as follows. Briefly, cells were harvested, washed, and labeled with Aqua Live/Dead for viability discrimination. After a wash with PBS, 2×10\hat{ }4 cells were aliquoted per well in 96-well U-bottom plates and incubated with 50 μL of purified anti-MS4A4A antibody at various concentrations (3× dilutions starting at 10 μg/mL) in FACS buffer (PBS+2% FBS+1 mM EDTA). After this primary incubation, the supernatant was removed via centrifugation, washed 2× with 150 μL of ice-cold FACS buffer, and incubated with the appropriate secondary antibody on ice for 15 minutes. Following the secondary antibody incubation, the cells were again washed 2× with ice-cold FACS buffer and resuspended in a final volume of 200 μL of FACS buffer. Flow cytometry analysis was performed on a FACSCanto system (BD Biosciences). Binding data was expressed as Median Fluorescent Intensity (MFI).
These experiments were performed using anti-MS4A4A antibodies at a concentration of 5 μg/ml and were assayed for cell binding by flow cytometry.

[3] = target: T2, recombinant MS4A4A soluble polypeptide JS1; assay: ELISA, 1 ug/ml antibody
T2 construct: also called JS1.His; loop grafted antigen
Description: Anti-MS4A4A antibodies of the present disclosure were tested for their ability to bind to the different recombinant MS4A4A soluble polypeptides, as described in Example 2, as follows. Nucleic acid encoding the VH and VL domains of humanized anti-MS4A4A antibodies of the present disclosure were cloned into pcDNA3.4 vector which contains either the human IgG1 heavy chain constant domain or human kappa constant domain. The humanized anti-MS4A4A antibodies were expressed in Expi293 cells and were purified by Mab select antibody purification resin (GE Healthcare Life Science, cat#17519902) following the manufacture's protocol. ELISA was performed to measure binding of anti-MS4A4A antibodies of the present disclosure the recombinant MS4A4A soluble polypeptides. 1 μg/ml biotinylated antigens were preincubated on the streptavidin-coated ELISA plates (Thermo Scientific, cat#PI15120) for 1 hour. Plates were washed 3 times, followed by the addition of antibodies (1 μg/ml, 0.33 μg/ml, and 0.11 μg/ml antibodies. Plates were incubated at room temperature with shaking for 1 hr, washed 3 times, then 1/2500 dilution of HRP conjugates goat anti human kappa antibodies added (SigmaAldrich cat#. A7164-1ML).

Binder	MFI (human MS4A4A)	OD450 [3]	other results
B1	–	–	luminescence, ADCP reporter, 3.048316 ng/mL [1]: 51; luminescence, ADCP reporter, 9.144947 ng/mL [1]: 46; luminescence, ADCP reporter, 27.43484 ng/mL [1]: 44; luminescence, ADCP reporter, 82.30453 ng/mL [1]: 66; luminescence, ADCP reporter, 246.9136 ng/mL [1]: 60; luminescence, ADCP reporter, 740.7407 ng/mL [1]: 54; luminescence, ADCP reporter, 2,222.222 ng/mL [1]: 67; luminescence, ADCP reporter, 6,666.667 ng/mL [1]: 242; luminescence, ADCP reporter, 20,000 ng/mL [1]: 154; luminescence, ADCC reporter, 3.048316 ng/mL [2]: 338; luminescence, ADCC reporter, 9.144947 ng/mL [2]: 338; luminescence, ADCC reporter, 27.43484 ng/mL [2]: 341; luminescence, ADCC reporter, 82.30453 ng/mL [2]: 426; luminescence, ADCC reporter, 246.9136 ng/mL [2]: 508; luminescence, ADCC reporter, 740.7407 ng/mL [2]: 623; luminescence, ADCC reporter, 2,222.222 ng/mL [2]: 1020; luminescence, ADCC reporter, 6,666.667 ng/mL [2]: 1180; luminescence, ADCC reporter, 20,000 ng/mL [2]: 1220
B2	350	1.79	–
B3	296	1.53	–
B4	286	1.66	–
B5	309	1.7	–
B6	218	1.33	–
B7	222	1.65	–
B8	284	1.76	–
B9	56.1	0.148	–
B10	–	0.146	–
B11	538	1.09	–
B12	513	1.37	–
B13	427	0.719	–
B14	–	0.132	–
B15	–	0.141	–
B16	47.8	0.131	–
B17	142	0.331	–
B18	–	0.162	–
B19	–	0.116	–
B20	–	0.126	–
B21	–	0.122	–
B22	–	0.121	–
B23	–	0.118	–
B24	–	0.12	–
